The assay deals with human PAC1 receptor (PAC1-CHO clonal cell line) (human), P41586. The assay can be described thus: cell-based or functional assay.

Where no end group is shown, it is not given here. [ ]: non-standard residue; d: D form. The star is where a group is joined. βGlc = OC[C@H]1O[C@@H](*)[C@H](O)[C@@H](O)[C@@H]1O; Nle = CCCC[C@H](N)C(=O)O Bounds are passed on as bounds.

This is an account of results in patent publication US20240294595A1, “GLYCOPEPTIDES AND USES THEREOF” (Arizona Board of Regents on Behalf of the University of …, priority 2013, published 2024).

Sequence of human PAC1 receptor (PAC1-CHO clonal cell line) (human), P41586 (P41586 21-468): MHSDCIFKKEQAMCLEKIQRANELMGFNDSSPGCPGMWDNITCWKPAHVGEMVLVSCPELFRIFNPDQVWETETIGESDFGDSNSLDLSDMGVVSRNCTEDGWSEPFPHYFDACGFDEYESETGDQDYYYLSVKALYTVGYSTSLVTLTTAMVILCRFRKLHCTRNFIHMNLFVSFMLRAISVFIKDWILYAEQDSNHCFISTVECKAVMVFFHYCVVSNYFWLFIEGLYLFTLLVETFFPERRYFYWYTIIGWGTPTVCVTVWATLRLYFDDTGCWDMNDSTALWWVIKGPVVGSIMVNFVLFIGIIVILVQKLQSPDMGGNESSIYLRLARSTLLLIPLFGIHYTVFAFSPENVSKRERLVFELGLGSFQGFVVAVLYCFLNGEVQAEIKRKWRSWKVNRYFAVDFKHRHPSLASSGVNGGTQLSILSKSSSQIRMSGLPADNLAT

As to HSDGIFTDSYSRYRKQMAVKKYLAAVL (ends and bridges not checked) [PACAP1-27], the EMax (agonist) stood at 100%.

B1: Hs…Ñ…-Ser(Glc) (peptide)
peptide: HSDGIFADSYSRYRKQXAVKKYLAAVLS
modifications: here or on the partner: D-Serine at 2 (s); L-Nor-Leucine at 17 (Ñ, written X in letters); Ser 28 = L-Ser(β-D-Glc)
Take B1: the EC50 (agonist) was more than 250 nM and the EMax (agonist) was -71%.

B2: Hs…Ñ…-Ser(Glc) (peptide)
peptide: HSDGIFTDSYSRYRKQXAVKKYLAAVS
modifications: here or on the partner: D-Serine at 2 (s); L-Nor-Leucine at 17 (Ñ, written X in letters); Ser 27 = L-Ser(β-D-Glc)
For B2, the EC50 (agonist) came out at 54.5 nM and the EMax (agonist) was 86%. On to FTDSYSRYRKQMAVKKYLAAVLGKRYKQRVKNK (ends and bridges not checked) [PACAP6-38], for which the antagonist potency, variable concentration mode versus 5 nM PACAP1-27 (calcium flux, FLIPR) was more than 333 nM and the pA2 (Gaddum/Schild EC50 shift model) was found to be 201 nM.

For the molecule H[dS]DGIFTDSYSRYRKQ[Nle]AVKKYLAALS(βGlc)L-NH2 (ends and bridges not checked) [Hs…Ñ…-Ser(Glc)-L], the EC50 (agonist) is more than 250 nM and the EMax (agonist) is -79%. As for HSDGIFTDSYSRYRKQLAVKKYLAAVLS(melibiose)-NH2 […-Ser(Mel)], the EC50 (agonist) was determined as 0.57 nM and the EMax (agonist) was found to be 99%.

B3: Hs…Ñ…-Ser(Glc) (peptide)
peptide: HSDGIFTDSYSRYRKQXAVKKYLAAVLS
modifications: here or on the partner: D-Serine at 2 (s); L-Nor-Leucine at 17 (Ñ, written X in letters); Ser 28 = L-Ser(β-D-Glc)
As to B3, the EC50 (agonist) came out at 25.5 nM and the EMax (agonist) is 85%.

B4: PACAP1-27-S-G (peptide)
peptide: HSDGIFTDSYSRYRKQMAVKKYLAAVLS
modifications: here or on the partner: added C-terminal serine carries glucose (serine glucoside)
For the molecule B4, the normalized efficacy (calcium flux, FLIPR; PACAP1-27 = 100%) is 102% and the potency of PAC1 activation (calcium flux, FLIPR, agonist mode, PAC1-CHO cells) came out at 5.68 nM.
